This assay deals with T1, 脆弱拟杆菌毒素BFT1全长蛋白(BFT1-sFL)，不含信号肽 (Bacteroides fragilis (产肠毒素脆弱拟杆菌, ETBF), UniProt P54355 26-405).
T1 construct: domain: 不含信号肽全长 (full length without signal peptide, pro domain kept); Recombinant protein from E. coli; This is not the processed catalytic domain alone: the pro domain is still present; also called BFT重组蛋白; BFT全长
T1 sequence: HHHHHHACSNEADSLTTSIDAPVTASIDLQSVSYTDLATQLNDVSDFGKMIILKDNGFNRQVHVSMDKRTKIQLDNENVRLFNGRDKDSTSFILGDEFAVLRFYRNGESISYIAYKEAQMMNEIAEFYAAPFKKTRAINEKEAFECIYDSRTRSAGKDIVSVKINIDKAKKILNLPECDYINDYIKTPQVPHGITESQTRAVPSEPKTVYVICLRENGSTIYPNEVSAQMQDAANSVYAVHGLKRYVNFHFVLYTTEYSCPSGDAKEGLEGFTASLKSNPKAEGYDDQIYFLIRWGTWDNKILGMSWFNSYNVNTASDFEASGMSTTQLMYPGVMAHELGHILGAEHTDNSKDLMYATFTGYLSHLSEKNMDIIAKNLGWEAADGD
The experiment in a line: ITC (Microcal PEAQ-ITC), 20℃, nanobody about 20 μM, BFT1-sFL about 200 μM, 20mM Tris-HCl pH 8.0, 150mM NaCl, 5% glycerol.

Kd data for one molecule are collected here from CN114409777A (SHAANXI HISINOVEC SCIENCE AND TECH LIMITED COMPANY, dated 2022).

B1: 结直肠癌相关的抗脆弱拟杆菌毒素蛋白激活体的特异性纳米抗体Nb3.27 (VHH)
VHH: QVQLQESGGGLVQAGGSLRLSCTYSGQTFSAWAMGWFRQAPGKERETVATINWNGERTQYADAVKGRFTISRDNAKDTVYLEMNSLKPEDTAVYYCASMMGTYYSGSPKNWGQGTQVTVSS
notes: also called BFT-211纳米抗体; BFT1-sFL纳米抗体
B1 gave a Kd of 15.3 nM.
